{"source": "patent US20110003880A1", "about": "“Compositions and methods for inhibiting optic nerve damage” (priority 2006, published 2011)", "key": {"PAD 2": {"test_system": "PAD 2", "experiment": "Modulation of intracellular calcium and PAD 2 expression in pressure treated astrocytes", "type": "cell-based, rat", "conditions": "astrocytes subjected to 40 mm Hg for 5 hours; 50-200 nM", "method": "FIGS. 9A-9B. Modulation of intracellular calcium concentration and PAD 2 expression. The astrocytes were subjected to 40 mm Hg for 5 hours and restored to normal pressure except controls. Pressure treated cells were subjected to (FIG. 9A) indicated concentrations of BAPTA-AM for 24 hours or (FIG. 9B) indicated concentrations of Thapsigargin. Total protein were extracted and transferred on PVDF membrane after SDS-PAGE separation and probed with antibodies to PAD 2 and GPDH, secondary antibodies coupled with IR-700 dye allowed scanning and detection.\nAstrocytes from Sprague Dawley rats (Harlan, Indianapolis, Ind.) brain cortex were used for these studies. Mixed glial cell suspensions were prepared from the P3 rat cortex regions following published procedures (Fuss, B., et al., Dev Biol., 218:259-74 (2000)) from which enriched GFAP positive cells were obtained using immunopanning (Yang, P., et al., Brain Res Brain Res Protoc. 12:67-76 (2003)). The astrocytes were exposed to a pressure of 40 mm of Hg for five hours (Yang, J. L., et al., Exp Eye Res. 56:567-74 (1993); Salvador-Silva, M., et al., Glia. 45:364-77 (2004)). Briefly, the cells plated in six well plates (Costar, Cambridge, Mass., USA) at a density of 3-10×10^3 cells/well and grown to semiconfluence in 2 days were incubated with serum free medium overnight. […]"}, "PAD2 [1]": {"test_system": "PAD2", "experiment": "Anti-PAD2 Western analysis of optic nerve from glaucomatous donors", "type": "in vivo, human", "conditions": "85M POAG donor, trabeculectomy plus verapamil; compared with other POAG eyes (86M and 76F)", "method": "FIGS. 5A-5D. Elevated level of PAD2 and citrulline in response to pressure. […] Protein extracted from the optic nerve of cadaver Caucasian donor eyes, age and gender are as indicated. All glaucomatous donors suffered elevated IOP and were subjected to surgical intervention except the 76F donor. The 85M donor also received verapamil, a calcium modulator. FIG. 5B, Representative Western analyses with anti-PAD2 of rat brain astrocytes subjected to 40 mm Hg pressure for 5 h then returned to atmospheric pressure for up to 4 days as indicated. FIG. 5C, Representative Western analysis with anti-citrulline of protein extracts (5 μg) from astrocytes subjected to elevated pressure as in FIG. 5B. […]\nFor these analyses previously described mouse monoclonal antibody (mAb) against PAD2 (Koike, H., et al., Biosci Biotechnol Biochem. 58:2286-7(1994); Koike, H., et al., Biosci Biotechnol Biochem. 59:552-4(1995)) was used. […] For quantitative Western analyses, anti-mouse and anti-rabbit secondary antibody linked to 700 nm or 800 nm IR-dyes were used on an Odyssey Infrared Imaging system according to the manufacturer (Li-Cor Biosciences, Lincoln, Neb.). […]\nOther donor eyes that had undergone either surgical or combined surgical and pharmacological intervention to relieve elevated IOP were also analyzed for PAD2. […]"}, "PAD2 [2]": {"test_system": "PAD2", "type": "cell-based, rat", "method": "Astrocytes from Sprague Dawley rats (Harlan, Indianapolis, Ind.) brain cortex were used for these studies. Mixed glial cell suspensions were prepared from the P3 rat cortex regions following published procedures (Fuss, B., et al., Dev Biol., 218:259-74 (2000)) from which enriched GFAP positive cells were obtained using immunopanning (Yang, P., et al., Brain Res Brain Res Protoc. 12:67-76 (2003)). The astrocytes were exposed to a pressure of 40 mm of Hg for five hours (Yang, J. L., et al., Exp Eye Res. 56:567-74 (1993); Salvador-Silva, M., et al., Glia. 45:364-77 (2004)). Briefly, the cells plated in six well plates (Costar, Cambridge, Mass., USA) at a density of 3-10×10^3 cells/well and grown to semiconfluence in 2 days were incubated with serum free medium overnight. A closed pressurized chamber (5% carbon dioxide) equipped with a manometer was used to subject the cells to elevated pressure. Cells were placed in the chamber and the pressure was elevated to 40 mm Hg. The chamber was subsequently placed in a tissue culture incubator at 37° C. Control cells from identical passage of cell lines were simultaneously incubated in a tissue culture incubator at atmospheric pressure at 37° C. The cells were incubated for 5 h or 1-4 days after pressure treatment. After incubation, cells were trypsinized and subjected to culture or Western analyses. For culture, the cells were plated on a cover slip and allowed 16 hours recovery period and subjected to immunohistochemistry using mouse monoclonal PAD2 and rabbit polyclonal GFAP antibodies. The cells were permeabilized with 200 μl of 0.2% Triton X-100 in phosphate buffer saline pH 7.5 for 1 hour after fixation with 4% paraformaldehyde for 1 hour. Western analyses were performed using antibodies to PAD2 and citrulline as described above.\nFor treatment of rat cortex astrocytes, shRNA against PAD2 (OpenBiosystems, Cat. #RHS 1764-9214220) was procured from OpenBiosystems in pShag Magic version 2.0 vector (OpenBiosystems). This shRNA contains the sequence (5′[…]′3) (SEQ ID NO: 7) from the coding region of PAD2 (see FIG. 14). For a negative control, we used a non-silencing shRNA sequence cloned into pShag Magic 2.0 (OpenBiosystems, cat. #RHS1703) from OpenBiosystems verified to contain no homology to known mammalian genes. About 30% confluent cells (3000 primary astrocytes) (Lee, J. H., et al., Glia., 50:66-79 (2005)) were transfected using SuperFect transfection reagent, purified vector (5 μg) DNA (Qiagen, Valencia, Calif.) and the manufacturer's recommended protocols. The post transfected astrocytes were selected on geneticin (10 μg/μl). The primary astrocytes were subjected to pressure (40 mm of Hg) and transfected with shRNA on plates immediately after they were brought to normal atmospheric pressure."}, "[3]": {"conditions": "astrocytes subjected to 40 mm Hg, transfected with shRNA immediately after return to atmospheric pressure, vs non-specific shRNA"}}}
{"molecule": "CC(=O)OCOC(=O)CN(CC(=O)OCOC(C)=O)c1ccccc1OCCOc1ccccc1N(CC(=O)OCOC(C)=O)CC(=O)OCOC(C)=O", "note": "[BAPTA-AM]", "values": [{"measurement": "expression of PAD 2 protein (Western)", "setting": "PAD 2", "value": "reduces expression of PAD 2 protein"}]}
{"molecule": "C/C=C(/C)C(=O)O[C@H]1C(C)=C2[C@H]([C@@H]1OC(=O)CCCCCCC)[C@@](C)(OC(C)=O)C[C@H](OC(=O)CCC)[C@@]1(O)[C@H]2OC(=O)[C@@]1(C)O", "note": "[Thapsigargin]", "values": [{"measurement": "expression of PAD 2 protein (Western)", "setting": "PAD 2", "value": "seems not to show a great increase in PAD 2 expression"}]}
{"molecule": "COc1ccc(CCN(C)CCCC(C#N)(c2ccc(OC)c(OC)c2)C(C)C)cc1OC", "note": "(centres unmarked) [verapamil]", "values": [{"measurement": "optic nerve PAD2 level (Western, relative to GPDH)", "setting": "PAD2 [1]", "value": "appeared lower"}]}
{"molecule": "PAD2 specific shRNA: shRNA against PAD2 (OpenBiosystems, Cat. #RHS 1764-9214220) in pShag Magic version 2.0 vector, SEQ ID NO: 7 (nucleic acid) TGCTGTTGACAGTGAGCGACAGCCTTGACTCATTTGGAAATAGTGAAGCCACAGATGTATTTCCAAATGAGTCAAGGCTGGTGCCTACTGCCTCGGA", "values": [{"measurement": "Differences in cell morphology due to reduction in mRNA", "setting": "PAD2 [2]", "value": "not observed"}, {"measurement": "PAD2 expression (anti-PAD2 Western analysis)", "setting": "PAD2 [2]; [3]", "value": "reduced PAD2 expression"}, {"measurement": "citrullination (anti-citrulline Western analysis)", "setting": "PAD2 [2]; [3]", "value": "reduced citrullination"}, {"measurement": "PAD 2 by immunohistochemical analysis", "setting": "PAD2 [2]; isolated astrocytes, 5 hours or 4 days at atmospheric pressure after 40 mm Hg, compared to untreated group", "value": "reduced"}, {"measurement": "PAD2 mRNA (Northern analysis of total RNA)", "setting": "PAD2 [2]; pressure treated astrocytes transfected with shRNA, within the sensitivity of detection", "value": "completely removed"}]}
